Test results as given in patent US20140011738A1 (INDIANA UNIVERSITY RESEARCH AND TECHNOLOGY, published 2014).
*1 amine or outer side, *2 acyl side, *3 side chain or, on linkers, in order; H or OH if unused. Where no end group is shown, it is not given here. Side-chain parts run from the residue outwards. [ ]: non-standard residue; d: D form. The star is where a group is joined. γGlu = O=C(O)[C@H](CCC(=O)[*:2])N[*:1]; Palmitoyl = CCCCCCCCCCCCCCCC(=O)*; Aib = CC(C)(N)C(=O)O

B1: peptide of SEQ ID NO: 10 (peptide)
peptide: H[Aib]QGTFTSDK([γGlu-Palmitoyl])SKYLDERAAQDFVQWLLDGGPSSGAPPPS-NH2
B2: peptide of SEQ ID NO: 44 (peptide)
peptide: H[Aib]EGTFTSDK([γGlu-Palmitoyl])SKYLDERAAQDFVQWLLEGGPSSGAPPPS-NH2
modifications: N-terminus assumed
SMILES: CCCCCCCCCCCCCCCC(=O)N[C@@H](CCC(=O)NCCCC[C@H](NC(=O)[C@H](CC(=O)O)NC(=O)[C@H](CO)NC(=O)[C@@H](NC(=O)[C@H](Cc1ccccc1)NC(=O)[C@@H](NC(=O)CNC(=O)[C@H](CCC(=O)O)NC(=O)C(C)(C)NC(=O)[C@@H](N)Cc1c[nH]cn1)[C@@H](C)O)[C@@H](C)O)C(=O)N[C@@H](CO)C(=O)N[C@@H](CCCCN)C(=O)N[C@@H](Cc1ccc(O)cc1)C(=O)N[C@@H](CC(C)C)C(=O)N[C@@H](CC(=O)O)C(=O)N[C@@H](CCC(=O)O)C(=O)N[C@@H](CCCNC(=N)N)C(=O)N[C@@H](C)C(=O)N[C@@H](C)C(=O)N[C@@H](CCC(N)=O)C(=O)N[C@@H](CC(=O)O)C(=O)N[C@@H](Cc1ccccc1)C(=O)N[C@H](C(=O)N[C@@H](CCC(N)=O)C(=O)N[C@@H](Cc1c[nH]c2ccccc12)C(=O)N[C@@H](CC(C)C)C(=O)N[C@@H](CC(C)C)C(=O)N[C@@H](CCC(=O)O)C(=O)NCC(=O)NCC(=O)N1CCC[C@H]1C(=O)N[C@@H](CO)C(=O)N[C@@H](CO)C(=O)NCC(=O)N[C@@H](C)C(=O)N1CCC[C@H]1C(=O)N1CCC[C@H]1C(=O)N1CCC[C@H]1C(=O)N[C@@H](CO)C(N)=O)C(C)C)C(=O)O
B3: peptide of SEQ ID NO: 11 (peptide)
peptide: H[Aib]QGTFTSDYSKYLDERAAQDFVQWLLDGGPSSGAPPPSK([γGlu-γGlu-Palmitoyl])G-NH2
B4: peptide of SEQ ID NO: 15 (peptide)
peptide: H[Aib]QGTFTSDYSKYLEERAAQDFVQWLLDGGPSSGAPPPSK([γGlu-γGlu-Palmitoyl])G-NH2
B5: peptide of SEQ ID NO: 16 (peptide)
peptide: H[Aib]QGTFTSEYSKYLDERAAQDFVQWLLDGGPSSGAPPPSK([γGlu-γGlu-Palmitoyl])G-NH2
B6: peptide of SEQ ID NO: 17 (peptide)
peptide: H[Aib]QGTFTSDYAKYLDERAAQDFVQWLLDGGPSSGAPPPSK([γGlu-γGlu-Palmitoyl])G-NH2
B7: peptide of SEQ ID NO: 18 (peptide)
peptide: H[Aib]QGTFTSDK([γGlu-Palmitoyl])SKYLEERAAQEFVQWLLEGGPSSGAPPPS-NH2
modifications: N-terminus assumed
SMILES: CCCCCCCCCCCCCCCC(=O)N[C@@H](CCC(=O)NCCCC[C@H](NC(=O)[C@H](CC(=O)O)NC(=O)[C@H](CO)NC(=O)[C@@H](NC(=O)[C@H](Cc1ccccc1)NC(=O)[C@@H](NC(=O)CNC(=O)[C@H](CCC(N)=O)NC(=O)C(C)(C)NC(=O)[C@@H](N)Cc1c[nH]cn1)[C@@H](C)O)[C@@H](C)O)C(=O)N[C@@H](CO)C(=O)N[C@@H](CCCCN)C(=O)N[C@@H](Cc1ccc(O)cc1)C(=O)N[C@@H](CC(C)C)C(=O)N[C@@H](CCC(=O)O)C(=O)N[C@@H](CCC(=O)O)C(=O)N[C@@H](CCCNC(=N)N)C(=O)N[C@@H](C)C(=O)N[C@@H](C)C(=O)N[C@@H](CCC(N)=O)C(=O)N[C@@H](CCC(=O)O)C(=O)N[C@@H](Cc1ccccc1)C(=O)N[C@H](C(=O)N[C@@H](CCC(N)=O)C(=O)N[C@@H](Cc1c[nH]c2ccccc12)C(=O)N[C@@H](CC(C)C)C(=O)N[C@@H](CC(C)C)C(=O)N[C@@H](CCC(=O)O)C(=O)NCC(=O)NCC(=O)N1CCC[C@H]1C(=O)N[C@@H](CO)C(=O)N[C@@H](CO)C(=O)NCC(=O)N[C@@H](C)C(=O)N1CCC[C@H]1C(=O)N1CCC[C@H]1C(=O)N1CCC[C@H]1C(=O)N[C@@H](CO)C(N)=O)C(C)C)C(=O)O
B8: peptide of SEQ ID NO: 43 (peptide)
peptide: H[Aib]QGTFTSDK([γGlu-Palmitoyl])SKYLDERAAQDFVQWLLEGGPSSGAPPPS-NH2
modifications: N-terminus assumed
SMILES: CCCCCCCCCCCCCCCC(=O)N[C@@H](CCC(=O)NCCCC[C@H](NC(=O)[C@H](CC(=O)O)NC(=O)[C@H](CO)NC(=O)[C@@H](NC(=O)[C@H](Cc1ccccc1)NC(=O)[C@@H](NC(=O)CNC(=O)[C@H](CCC(N)=O)NC(=O)C(C)(C)NC(=O)[C@@H](N)Cc1c[nH]cn1)[C@@H](C)O)[C@@H](C)O)C(=O)N[C@@H](CO)C(=O)N[C@@H](CCCCN)C(=O)N[C@@H](Cc1ccc(O)cc1)C(=O)N[C@@H](CC(C)C)C(=O)N[C@@H](CC(=O)O)C(=O)N[C@@H](CCC(=O)O)C(=O)N[C@@H](CCCNC(=N)N)C(=O)N[C@@H](C)C(=O)N[C@@H](C)C(=O)N[C@@H](CCC(N)=O)C(=O)N[C@@H](CC(=O)O)C(=O)N[C@@H](Cc1ccccc1)C(=O)N[C@H](C(=O)N[C@@H](CCC(N)=O)C(=O)N[C@@H](Cc1c[nH]c2ccccc12)C(=O)N[C@@H](CC(C)C)C(=O)N[C@@H](CC(C)C)C(=O)N[C@@H](CCC(=O)O)C(=O)NCC(=O)NCC(=O)N1CCC[C@H]1C(=O)N[C@@H](CO)C(=O)N[C@@H](CO)C(=O)NCC(=O)N[C@@H](C)C(=O)N1CCC[C@H]1C(=O)N1CCC[C@H]1C(=O)N1CCC[C@H]1C(=O)N[C@@H](CO)C(N)=O)C(C)C)C(=O)O

Biological target: GLP-1 receptor (UniProt P43220 24-463, limits assumed)
Sequence (P43220 24-463 limits assumed): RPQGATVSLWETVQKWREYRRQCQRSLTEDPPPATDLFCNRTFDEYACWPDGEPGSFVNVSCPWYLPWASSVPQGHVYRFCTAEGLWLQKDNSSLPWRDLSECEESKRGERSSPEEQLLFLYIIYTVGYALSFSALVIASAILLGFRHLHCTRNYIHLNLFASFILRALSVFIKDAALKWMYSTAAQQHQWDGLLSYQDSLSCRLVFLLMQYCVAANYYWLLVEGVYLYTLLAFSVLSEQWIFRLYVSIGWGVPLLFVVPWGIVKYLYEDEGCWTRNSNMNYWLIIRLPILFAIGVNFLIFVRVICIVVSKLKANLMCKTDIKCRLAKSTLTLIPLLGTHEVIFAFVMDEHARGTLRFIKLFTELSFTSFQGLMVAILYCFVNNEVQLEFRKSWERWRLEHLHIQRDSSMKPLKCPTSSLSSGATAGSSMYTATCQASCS
Assay: cell-based or functional assay

Row | Binder | EC50 at GLP-1 Receptor [pM]
1 | B1 | 4
2 | B2 | 7
3 | B3 | 1
4 | B4 | 3
5 | B5 | 2
6 | B6 | 8
7 | B7 | 8
8 | B8 | 4

Biological target: glucagon receptor (UniProt P47871 26-477, limits assumed)
Sequence (P47871 26-477 limits assumed): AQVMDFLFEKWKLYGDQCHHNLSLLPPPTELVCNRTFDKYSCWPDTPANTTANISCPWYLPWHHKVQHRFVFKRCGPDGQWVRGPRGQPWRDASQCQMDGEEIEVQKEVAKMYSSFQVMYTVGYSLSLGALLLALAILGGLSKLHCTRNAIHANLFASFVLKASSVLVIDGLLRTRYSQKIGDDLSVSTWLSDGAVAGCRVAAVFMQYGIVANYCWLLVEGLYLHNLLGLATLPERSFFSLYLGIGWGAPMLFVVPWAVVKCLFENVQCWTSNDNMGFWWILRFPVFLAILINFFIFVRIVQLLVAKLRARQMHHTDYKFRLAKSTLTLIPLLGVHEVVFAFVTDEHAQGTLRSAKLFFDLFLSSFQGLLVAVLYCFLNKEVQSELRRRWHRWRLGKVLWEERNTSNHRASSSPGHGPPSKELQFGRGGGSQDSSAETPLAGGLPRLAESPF
Assay: cell-based or functional assay

Row | Binder | EC50 at Glucagon Receptor [pM]
9 | B1 | 4
10 | B2 | 1470
11 | B3 | 4
12 | B4 | 5
13 | B5 | 28
14 | B6 | 19
15 | B7 | 7
16 | B8 | 6

Biological target: T1, GIP receptor (UniProt P48546 22-466, limits assumed)
T1 sequence (looked up): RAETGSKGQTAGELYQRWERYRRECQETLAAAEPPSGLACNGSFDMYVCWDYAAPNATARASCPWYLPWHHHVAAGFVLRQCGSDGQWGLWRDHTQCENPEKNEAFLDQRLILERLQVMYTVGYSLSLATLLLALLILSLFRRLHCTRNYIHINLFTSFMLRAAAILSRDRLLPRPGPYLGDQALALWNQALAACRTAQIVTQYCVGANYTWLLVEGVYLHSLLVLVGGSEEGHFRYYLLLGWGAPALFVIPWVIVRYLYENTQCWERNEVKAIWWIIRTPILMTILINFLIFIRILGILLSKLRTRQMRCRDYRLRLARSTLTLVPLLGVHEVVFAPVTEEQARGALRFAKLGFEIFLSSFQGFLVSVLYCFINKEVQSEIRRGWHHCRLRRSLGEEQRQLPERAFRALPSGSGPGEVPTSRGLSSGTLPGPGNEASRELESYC
Assay: cell-based or functional assay

Row | Binder | EC50 at GIP Receptor [pM]
17 | B1 | 4
18 | B2 | 27
19 | B3 | 24
20 | B4 | 8
21 | B5 | 54
22 | B6 | 20
23 | B7 | 7
24 | B8 | 5
